Experimental data published in the NTF2 design screens of Basanta et al. (2020).

Experiment: protease stability score; higher = more stable; yeast display proteolysis, trypsin and chymotrypsin;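 also: relative to predicted unfolded state with 0 unfolded-like and 1 meaning tenfold more protease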

Q: For “DDETEHLEKSVRDLVTSIKTGNWEEFYKMFDPNMRVDINGQQYHGRENAVEMVRQLWERLGAKHVHLTEIRYYGDKLELIMHVHFDGRDKEEEYIAVKIDGRWLLTEVRFK”, which protease stability score is on record?
A: 2.08

Q: For “DDETEYAREASEMWVKLLITGDEEIREEYIDPHAKMDQGEYEYHGREQVSRFSKKLIDTMGVKHFDIKSIEIQGDKVILFMHEHFENRRVDLIFYSRKFDGRWHYRRMEVIHR”, which protease stability score is on record?
A: 0.543

Q: For “DDETHEYEEAMELWVKALTTGNEDLLKDLHDPHTLTRINGRTEHGRHTWVEIRRKLGVKHLHIETSRLIDGRVHLHARIHVGDKNLEIIVIIVKVNGRWLTSEINIH”, which protease stability score is on record?
A: 0.951

Q: With “DDFDRNIEKLMKDLLHNWRTGNEDEFLRLIDPNARLTVGDYESHGREEYARVLRELLEEMRLHQVHIRHVEYFDGQADIDIREDGFINGQRIILTTRIIVVKVNGRWVVKSHVIN” as the sequence, how does the protease stability score read?
A: 0.967

Q: For “DDHDEELQRIVEIIFRHISTGNFDHLYKYLDPNVRMIIWIGDKNITAHGREHMSEVLHKLWKHLRIKDVDLHDVKSQGEKAIVDTHVHGIIDGKDTHIKTTLIVIIVDGRLKQMEVEVK”, which protease stability score is on record?
A: 2.59

Q: For “DDHDKLLQKLMRFWLWAFLTGDEDHFDEMADPNTRLSSIVNGRDIQLHGREQVNKHFKELRLHHFILRTWSVYDGRVEIDGQMDGEYDGRRIDTRVTIIIVIINGRSTREHLDFK”, which protease stability score is on record?
A: 0.261

Q: For “DDHDKLMQDLTSMFVRDLITGDEKSMDELLDPDVKVDINGQETHGRDHFLEILNKNLKEWRVKDVKIEHVEWYGNKAHIRMEVIGNWNGKEHSLDFELHLLIVNGQFKEIRIKIR”, which protease stability score is on record?
A: 1.5

Q: With “DDHEEEVLRLLHTVLRIMWTGDEDELHRLADPNMKMWINGRKFHGRETAIETLKRMVNEIRIHEIHVKDFDVIGEYAHVDTRVRGTINGKETILNERIIVLVIDGRIKSIRIDLK” as the sequence, how does the protease stability score read?
A: 2.13

Q: For “DDHEHFHREIWRTWLELQLTGDPHRLERLADPHVRFVYGDKVFHGREKMSEHFERENRELGIDHVEVRIKDSRFIDGRVHHDSELIIRVDGRTYKHDVKVIIDKVDGRWNIQKVEIR”, which protease stability score is on record?
A: 1.07

Q: For “DDHEKDLTDMARRNYHWWKTGDFDRVIDLLDPTTRLIVGDKKFHGWDEFSHALELFRKQLRPNDSKLKREEVYGDKMVIHSHLHGTVDGKEVHHDVIFTFVIIDGRIHLIIIEPR”, which protease stability score is on record?
A: 0.516

Q: Which protease stability score does the source give for “DDHEKIVQHLLEEIIEIWLTGNFEEHLKRFDPDMRLNVNGVEHHGRESNERWFNKQIERYKNATIHHRIESVDVQGDKVHSDGELIYIQGDKIIRTKIIVRLLVVNGRIKRIEIEMI” here?
A: 1.31

Q: For “DDHEKLSEEHMRFIRHAIKTGDEETLKELADPDMRINVNGRLFHGWEHFFKIWEHIRRHLRFKDYDIHDFEIYGDKIHADTRVKSRVNGVERIITTEVLIMKVDGRWYNHEVRLH”, which protease stability score is on record?
A: 0.71

Q: Which protease stability score does the source give for “DDHEKRLEEYMKHWFENLMTGNEERLHELADPNARFHLHFENHEVDLIGREDIIKWWREFLHRVKNIRHHLDHLEIQGEKSHLDMTLNIDGKEYRVRIIVVIVNGKIHKVIVDIR” here?
A: 2.23

Q: Which protease stability score does the source give for “DDHERDAERAIKELMHNFETGNEDFLNEMADPNMRVIINGKEHIGWENFRHHLRRVLHELRIKRIHIRQVRVQGEWVNVISEFIGEVDGREHRVETSYILLKVNGRWTLHSMYFE” here?
A: 2.69

Q: With “DDHETEMIHWAELFAELIRTGDEEKLDKLLDPNVKIDINGRKFHGRESMRFALKHLRIHHVEIDDLKVQGDKSFWIGFVEGQIDGQRDRRHSTIELLLVNGRIKSVQLEFR” as the sequence, how does the protease stability score read?
A: 1.61

Q: For “DDHHEELRKFVEELSRARETGDEELIESLIDPHVKINVGDKRLHGRRAVEILLHEWRVHFFHSERMEVYGDKARIEGHMNGEYNGRRHETKLEMYVHKVNGKWILQHFTVE”, which protease stability score is on record?
A: 2.17

Q: For “DDHHELLKRMMDIIKEQFLTGDWEEHRRMADPHVKVIINGVQLIGWEHIRRFEEEMRRQWRIHHVEDKDERYFEGRAHVHSEIDGEFDGKREIHHSVIHLHVVNGRLKRLELRFE”, which protease stability score is on record?
A: 1.28

Q: Which protease stability score does the source give for “DDHHEVARKIFFHHYNITQTGDEESIERLLDPNVRIIIDGKYIHGWEEILRLIRHIRIHRFNVHRVELQGEKLILDGFTDGSFDGKRITTTIDIYILKIDGRWFIQQIELR” here?
A: 1.46

Q: Which protease stability score does the source give for “DDHKKLVDEMIRIVLEELKTGNEETFNKLADPNVKVEWNGVDNHGREEVEEWWREYREVLGVDVIHIELKHVDPQGDKARIDGIIVETQGEKHHSFRAHIIIVVVNGRMHSIHERRR” here?
A: 0.881

Q: With “DDHKKRVDHLLRELLHHWRTGDFEHIYKLADPHVRFHIQIGEFHHEAVGWDEVVRLIQTHLDQLGVDHLRIRRVKSQGDKLYIETESYIGDFRIEFHIIWIVVNGRLKEQRMHIHEG” as the sequence, how does the protease stability score read?
A: 1.45

Q: With “DDHRDRLEHHASEFITAMLTGNWERLYQLVDPHVRLEIHVNGRKQHRVGREEFWTQWQKFVEDFGIDHSHLDRMEVIGNKMHAEFNIRVGDKRFILELHVIIVNGRISEVRVDFR” as the sequence, how does the protease stability score read?
A: 2.15

Q: With “DDHSSARKFADEFREMMKTGDSTKADELFDPNVRVEVGDKRYHGREQAVDWIRHLVDRYDHIEIRIDHITVRGDRISIVFTVHYEKNGETTYDRYVMVAVDRNGRAQIKMLRKG” as the sequence, how does the protease stability score read?
A: 2.09

Q: Which protease stability score does the source give for “DDIDEHAETVVDHLIRSQMTGNEELFQHLADPHARLDINGKEYVGRELVSKIITHLRIHFLEIQFLHVQGDKVTIDVKIRGKVDGRTETSDQRLILVKINGKWLLTEIEVG” here?
A: 1.03

Q: For “DDIDHFLLEIVLRFIEDNLTGNEDNLRKMADPDTRIFIHIGEKEFRIHGREAWTEWILTIVDHMRMRLNIRRLEWQGDKARITQEQDIHVGNKTHTTEVELHIVIIDGKMHTVHVELR”, which protease stability score is on record?
A: 1.36

Q: With “DDIEEDVKEFLRLMKEMNETGDEHRLTEMADPNVRVHIGDKHFHGREDAERLWRRADVFHHIKIKEYELQGDKLYMNVEVDGKFDGKRIRHDVTEIVTKVNGRWLLRSIRFD” as the sequence, how does the protease stability score read?
A: 0.577

Q: With “DDIEEILKEAFERLIHDLRTGNEDNLRSLIDPNVRLNWNGQELHGREHVLELLTRIKNLRIEDWTTKDQRYQGDKIEMDGILHTRIGDKEIHLETHIHVRKVDGRWKIEQLDFR” as the sequence, how does the protease stability score read?
A: 2

Q: For “DDIEEILRRMTELFWRALATGDEREERELADPHVRLDVNGRTYHGMEKVREWYRRIDHHHFETWHYHHIEFQGEKVYIEGRMRVNLDINGQELRIDTFTIILMLVINGRIHRFQYQVH”, which protease stability score is on record?
A: 0.467

Q: For “DDIEETFRHYLDQWIRDLRTGDEEALYRLADPNARHKINGQHLHGRELHDHEFNRIKNLKVDFVTRDIRIIGDKLIIHGEMIIRINGRQISIDTEIYLRKIDGRWFVEQVNVG”, which protease stability score is on record?
A: 0.305

Q: Which protease stability score does the source give for “DDIEHDVKFFMERWVEAINTGDWKLLKKLVDPDAKFLIGDKELHGRELYVRHVLELRYRTEMIDNKIEVYDGRVHADMQVHSTLHIDGRNVDIHTHTRVVTRKVDGQWRLKSMEIL” here?
A: 0.993

Q: Which protease stability score does the source give for “DDIEKDIREVLDILIRAFQTGDEDKILELFDPHARVDVGEYHNHGWERVEEWMHRVDHIDVRRLEIKHFHHINGRIVLHTHFDGILTINGREIHTETEVHIILVKINGKWYFKEISHH” here?
A: 2.12

Q: Which protease stability score does the source give for “DDIEKDMERFTHVWLEAWRTGDEDLAKELFDPNTRVEQGDKKYHGRTEFVNLLSHIRIRDMRIHDIHYIVIDGKAIIDFDGELTIDVNGRFHRHRVIIHVEVIKINGQWEISQMRIEVR” here?
A: 1.11

Q: Which protease stability score does the source give for “DDIEKLMLWALHLFSHALSTGNEELVIRLADPHYRLHIGDWESHGRENFRQFIHEIRMHMKRVDDRDIRVQGEFVRIEGELDGVIFIDGRTFRTRLDTRIILNKVDGRWFIHSNHVH” here?
A: 1.27

Q: For “DDIHRIIKTALELWLRVLETGDERLIHELLDPDARFVINGKFYHGREVWEEERRQIDHIRMDTFHLKHIDLVNGRLRIEGHIVFTVHVNGRTTRREEDVHFILTKFNGKWEMQSLNIE”, which protease stability score is on record?
A: 1.15

Q: Which protease stability score does the source give for “DDIKEESRHAHEEMLKIIKTGNEEVFEEMADPDVRIILDINGRDVRSHGREEAVRFWHEFMERVKGLRIHTDDLIVVGDKIELRIHSRYNGVRTHIRMIVSKFDGVWLLTELEIRVV” here?
A: 1.75

Q: With “DDIKEETDHLVDLLMEDIITGNERRLSHLADPNVRFTVGDWHSHGRKEMVEALRFTLDRADHVEYQPHRIENQGDKATAVIRVKLEYNGRTEEFRLIFTMEKIDGKWIVHKIFYR” as the sequence, how does the protease stability score read?
A: 0.976

Q: With “DDIKHEILRLMQLAFHYWETGDWEHFHHLADPHVRIDLDFNGKRLDLHGRDELQRVLEEELKRIDHFELHVTSLTDQGNKAELHGHRHIHQGDKRIDVRVINILIVVDGRIKTYSVHIR” as the sequence, how does the protease stability score read?
A: 0.909
